Source: publication PMC2266617

Target: Kv4.2-T1 domain (tetramerization domain of Kv4.2) with a poly-His tag at the NH2 terminus
Assay: SEC

Kv4.2-T1 domain (tetramerization domain of Kv4.2) with a poly-His tag at the NH2 terminus, sequence (Q63881 whole entry, the tested form may be a part): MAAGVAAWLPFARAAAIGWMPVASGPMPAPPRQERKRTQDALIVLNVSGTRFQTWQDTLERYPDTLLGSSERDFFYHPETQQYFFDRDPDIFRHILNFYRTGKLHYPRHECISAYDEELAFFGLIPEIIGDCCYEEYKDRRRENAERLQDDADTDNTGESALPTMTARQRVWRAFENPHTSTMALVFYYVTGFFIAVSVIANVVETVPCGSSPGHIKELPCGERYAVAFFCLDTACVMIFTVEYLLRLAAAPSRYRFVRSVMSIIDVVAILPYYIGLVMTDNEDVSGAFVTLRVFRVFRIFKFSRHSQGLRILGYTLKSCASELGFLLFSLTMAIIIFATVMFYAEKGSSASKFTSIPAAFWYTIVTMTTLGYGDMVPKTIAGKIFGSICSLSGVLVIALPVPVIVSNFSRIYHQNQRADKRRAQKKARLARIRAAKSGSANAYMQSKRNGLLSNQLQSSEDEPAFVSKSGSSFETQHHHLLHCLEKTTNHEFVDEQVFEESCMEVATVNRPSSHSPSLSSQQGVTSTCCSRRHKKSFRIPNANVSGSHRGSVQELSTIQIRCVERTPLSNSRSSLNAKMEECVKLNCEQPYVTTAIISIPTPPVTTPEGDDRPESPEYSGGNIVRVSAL

stoichiometry N: 4
Substance: Kv4.2-T1 domain (tetramerization domain of Kv4.2) with a poly-His tag at the NH2 terminus (domain or fragment)
